Data published in US20170298096A1 (CANIMGUIDE THERAPEUTICS, published 2017).
No end group written: not given here.

Target: T1, His-tagged P3028 (human, also: His-tag, terminus and sequence not given here)
T1 construct: in solution at 0.5 ug/mL over the peptide cards; found with anti-His-tag antibody and rabbit anti-mouse peroxidase (rampo); also called PGE73; not shown: His-tag
T1 peptide: VFDEFKPLVEEPQNLIK
Assay: PEPSCAN chip ELISA, His-P3028 in solution;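 also: score is the raw OD at 405 nm from peroxidase colour with ABTS, imaged by CCD camera before and after staining, with wells showing air bubbles set to zero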

Row | Binder | RAMPO Score [rampo score]
1 | KKLWTFFVKLSLFTER [SEQ ID NO 302] | 443
2 | KKLDTFFVKLNLFTER [SEQ ID NO 347] | 451
3 | KKLDTFFVKLSLATER [SEQ ID NO 361] | 525
4 | KKLDTFFVKLSLQTER [SEQ ID NO 370] | 1140
5 | KKLDTFFVKASLFTER [SEQ ID NO 332] | 426
6 | KKLDMFFVKLSLFTER [SEQ ID NO 305] | 475
7 | KKLDTFFVKLSLNTER [SEQ ID NO 368] | 862
8 | KKLDTFFVKLSLITER [SEQ ID NO 365] | 468
9 | KKLDTFFVKISLFTER [SEQ ID NO 335] | 415
10 | KKLDTFFVKLSLMTER [SEQ ID NO 367] | 1190
11 | KKLDWFFVKLSLFTER [SEQ ID NO 311] | 418
12 | KKLDQFFVKLSLFTER [SEQ ID NO 308] | 535
13 | KKLDTFFVKLSSFTER [SEQ ID NO 357] | 478
14 | KKLDTMFVKLSLFTER [SEQ ID NO 315] | 467
15 | KKLDTPFVKLSLFTER [SEQ ID NO 317] | 497
16 | KKLDYFFVKLSLFTER [SEQ ID NO 312] | 425
17 | KKLDTFFVKNSLFTER [SEQ ID NO 337] | 365
18 | KKLDTFFPKLSLFTER [SEQ ID NO 329] | 456
19 | KKLDTFFVKLSLCTER [SEQ ID NO 362] | 400
20 | KKLDSFFVKLSLFTER [SEQ ID NO 310] | 458
21 | KKLDTFFVKLSLSTER [SEQ ID NO 372] | 635
22 | KKLDTFFVKLSNFTER [SEQ ID NO 354] | 462
23 | KKLDTFFVKLSMFTER [SEQ ID NO 353] | 499
24 | KKLDTFFVKGSLFTER [SEQ ID NO 334] | 495

Row | Binder | RAMPO Score [rampo score]
25 | KKLDTFFVKLMLFTER [SEQ ID NO 346] | 744
26 | KKLDTFFVKLSHFTER [SEQ ID NO 351] | 460
27 | KKLDTAFVKLSLFTER [SEQ ID NO 313] | 575
28 | KKLDNFFVKLSLFTER [SEQ ID NO 306] | 436
29 | KKLDTFFVKLSLPTER [SEQ ID NO 369] | 696
30 | KKLDTFFVKLHLFTER [SEQ ID NO 345] | 535
31 | KKLDTFFVKVSLFTER [SEQ ID NO 343] | 658
32 | KKLDTFFVKLSLLTER [SEQ ID NO 366] | 448
33 | KKLYTFFVKLSLFTER [SEQ ID NO 303] | 422
34 | KKLDCFFVKLSLFTER [SEQ ID NO 304] | 449
35 | KKLDTFFLKLSLFTER [SEQ ID NO 328] | 411
36 | KKLDTFFRKLSLFTER [SEQ ID NO 330] | 365
37 | KKLDTIFVKLSLFTER [SEQ ID NO 314] | 466
38 | KKLDTFFVKPSLFTER [SEQ ID NO 338] | 436
39 | KKLDTFFVKMSLFTER [SEQ ID NO 336] | 460
40 | KKLDTFFGKLSLFTER [SEQ ID NO 327] | 379
41 | KKLDTFMVKLSLFTER [SEQ ID NO 321] | 712
42 | KKLDTFSVKLSLFTER [SEQ ID NO 323] | 700
43 | KKLDTFFVKLQLFTER [SEQ ID NO 348] | 768
44 | KKLDTFFVKQSLFTER [SEQ ID NO 339] | 470
45 | KKLDTFQVKLSLFTER [SEQ ID NO 322] | 511
46 | KKLDTFFVKLTLFTER [SEQ ID NO 349] | 520
47 | KKLDTFFVKLSTFTER [SEQ ID NO 358] | 437
48 | KKLDTFFVKRSLFTER [SEQ ID NO 340] | 439

Row | Binder | RAMPO Score [rampo score]
49 | KKLDTFFVKSSLFTER [SEQ ID NO 341] | 351
50 | KKLDTFFVKLSRFTER [SEQ ID NO 356] | 483
51 | KKLDTFFVKLSVFTER [SEQ ID NO 359] | 545
52 | KKLDTFLVKLSLFTER [SEQ ID NO 320] | 517
53 | KKLDTFFFKLSLFTER [SEQ ID NO 326] | 358
54 | KKLDTFFVKLSLRTER [SEQ ID NO 371] | 502
55 | KKLDTFFVKLSIFTER [SEQ ID NO 352] | 456
56 | KKLDPFFVKLSLFTER [SEQ ID NO 307] | 427
57 | KKLDTFFVKLSAFTER [SEQ ID NO 350] | 462
58 | KKLDTFFVKTSLFTER [SEQ ID NO 342] | 399
59 | KKLDTFTVKLSLFTER [SEQ ID NO 324] | 517
60 | KKLDTVFVKLSLFTER [SEQ ID NO 319] | 547
61 | KKLDTFFVKYSLFTER [SEQ ID NO 344] | 382
62 | KKLDTFVVKLSLFTER [SEQ ID NO 325] | 527
63 | KKLDTFFVKLSWFTER [SEQ ID NO 360] | 409
64 | KKLDTFFVRLSLFTER [SEQ ID NO 331] | 374
65 | KKLDTFFVKLSQFTER [SEQ ID NO 355] | 651
66 | KKLDTFFVKFSLFTER [SEQ ID NO 333] | 403
67 | KKLDTTFVKLSLFTER [SEQ ID NO 318] | 481
68 | KKLDTFFVKLSLGTER [SEQ ID NO 363] | 531
69 | KKLDTNFVKLSLFTER [SEQ ID NO 316] | 446
70 | KKLDTFFVKLSLHTER [SEQ ID NO 364] | 1050
71 | KKLDRFFVKLSLFTER [SEQ ID NO 309] | 430
